The values below come from patent publication US20060002929A1.

For test [1], the target named is Human Fc-OX40L (human) (UniProt P23510). As to the kind of experiment: BIAcore, immobilized hFc-OX40L. For orientation: SPR reads the build-up and loss of mass on a sensor chip optically.
The target is the same in test [2]. As to the kind of experiment: cell-based or functional assay.

Human Fc-OX40L (human), sequence (P23510 51-183 limits assumed): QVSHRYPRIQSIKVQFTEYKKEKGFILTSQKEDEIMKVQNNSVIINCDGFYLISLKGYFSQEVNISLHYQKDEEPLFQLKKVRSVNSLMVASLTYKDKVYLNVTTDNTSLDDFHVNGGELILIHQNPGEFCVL

B1: Ab G (antibody, part only; not given: light chain, part only)
heavy: MEFGLSWIFLAAILKGVQCEVQLVESGGGLVKPGGSLRLSCAASGFTFSNAWMSWVRQAPGKGLEWIGRIKSKTEGGTTDYGAPVKGRFTISRDDSKNTLYLQMNSLKTEDTAVYSCTTDFLWFGEFPFDYWGQGTLVTVSSASTKGPSVFPLAPCSRSTSESTAALGCLVKDYFPEPVTVSWNSGALTSGVHTFPAVLQSSGLYSLSSVVTVPSSNFGTQTYTCNVDHKPSNTKVDKTVERKCCVECPPCPAPPVAGPSVFLFPPKPKDTLMISRTPEVTCVVVDVSHEDPEVQFNWYVDGVEVHNAKTKPREEQFNSTFRVVSVLTVVHQDWLNGKEYKCKVSNKGLPAPIEKTISKTKGQPREPQVYTLPPSREEMTKNQVSLTCLVKGFYPSDIAVEWESNGQPENNYKTTPPMLDSDGSFFLYSKLTVDKSRWQQGNVFSCSVMHEALHNHYTQKSLSLSPGK
With B1, the EC50 – broadly, the midpoint of the concentration-response curve – with Human Fc-OX40L (human) [1] came out at 0.4 nM. In the test with Human Fc-OX40L (human) [2], this molecule gave a Costimulation Value (IC50), T cell proliferation (3H-thymidine) of 3.2 and an IL-2 Inhibition (IC50 [nM]) of 0.22 nM.
